Experimental data: PMC7913765, “Dynamics of the HD regulatory subdomain of PARP-1; substrate access and allostery in PARP activation and inhibition”

Legend:
Settings in all cases: protein: recombinant; tags: N-terminal 6His-6Lys tag, TEV site; label: biotin (internal dT, streptavidin chip); dumbbell of two hairpins with T7 loops, nick between the 5' and 3' ends; stems 13 and 12 bp
PARP-1 full-length [1] = molecular target: T1, PARP-1 full-length (human, UniProt P09874 2-1014); test: SPR; olaparib (10 mM [sic]); SPR (Biacore 8K): 20 mM HEPES, 150 mM NaCl, 1 mM TCEP, 0.05% Tween-20, 1% (v/v) (component not given), pH not stated, 25 C; PARP-1 0.078-20 nM; n = 6
PARP-1 full-length [2] = molecular target: T1, PARP-1 full-length; test: SPR; EB-47 (100 mM [sic]); SPR (Biacore 8K): 20 mM HEPES, 150 mM NaCl, 1 mM TCEP, 0.05% Tween-20, 1% (v/v) (component not given), pH not stated, 25 C; PARP-1 0.078-20 nM; n = 6
PARP-1 full-length [3] = molecular target: T1, PARP-1 full-length; test: SPR; no inhibitor; SPR (Biacore 8K): 20 mM HEPES, 150 mM NaCl, 1 mM TCEP, 0.05% Tween-20, 1% (v/v) (component not given), pH not stated, 25 C; PARP-1 0.078-20 nM; n = 6
PARP-1 full-length [4] = molecular target: T1, PARP-1 full-length; test: SPR; veliparib (10 mM [sic]); SPR (Biacore 8K): 20 mM HEPES, 150 mM NaCl, 1 mM TCEP, 0.05% Tween-20, 1% (v/v) (component not given), pH not stated, 25 C; PARP-1 0.078-20 nM; n = 6

T1 sequence (P09874 2-1014): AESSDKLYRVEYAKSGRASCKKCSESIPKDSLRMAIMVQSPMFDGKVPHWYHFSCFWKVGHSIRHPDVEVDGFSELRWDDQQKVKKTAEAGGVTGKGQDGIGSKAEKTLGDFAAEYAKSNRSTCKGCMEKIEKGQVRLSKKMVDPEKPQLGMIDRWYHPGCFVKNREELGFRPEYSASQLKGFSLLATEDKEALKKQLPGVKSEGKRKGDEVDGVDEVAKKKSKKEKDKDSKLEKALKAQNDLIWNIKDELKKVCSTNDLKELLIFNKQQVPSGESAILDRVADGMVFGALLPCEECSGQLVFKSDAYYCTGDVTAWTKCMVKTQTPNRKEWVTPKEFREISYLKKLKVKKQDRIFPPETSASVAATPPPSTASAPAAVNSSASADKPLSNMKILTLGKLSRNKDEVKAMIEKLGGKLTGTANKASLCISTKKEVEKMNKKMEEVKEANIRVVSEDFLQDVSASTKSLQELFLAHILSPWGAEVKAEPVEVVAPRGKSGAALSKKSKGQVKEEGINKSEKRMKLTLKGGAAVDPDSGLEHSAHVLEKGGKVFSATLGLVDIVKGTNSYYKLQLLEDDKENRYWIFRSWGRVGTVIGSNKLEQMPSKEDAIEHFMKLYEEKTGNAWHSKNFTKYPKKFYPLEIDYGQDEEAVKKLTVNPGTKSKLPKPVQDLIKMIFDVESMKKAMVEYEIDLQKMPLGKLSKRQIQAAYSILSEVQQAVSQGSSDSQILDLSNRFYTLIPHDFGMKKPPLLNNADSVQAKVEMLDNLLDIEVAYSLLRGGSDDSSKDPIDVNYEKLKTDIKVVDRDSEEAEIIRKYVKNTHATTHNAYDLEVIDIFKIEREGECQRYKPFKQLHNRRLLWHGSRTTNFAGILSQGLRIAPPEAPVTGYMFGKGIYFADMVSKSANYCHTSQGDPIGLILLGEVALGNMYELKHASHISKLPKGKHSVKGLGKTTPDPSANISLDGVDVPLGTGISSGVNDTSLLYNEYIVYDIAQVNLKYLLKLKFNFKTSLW

B1: biotinylated hairpin DNA (dumbbell single-strand break model) (structured_DNA)
DNA: GACAACCCGGCGCTTTTTTTGCGCCGGGTTGTCTGGCCCAGTTCGTTTTTTTCGAACTGGGCCA
modifications: biotin-dT at position 17 (written as T; between S1 and S2)
**Q.** For B1, which Kd (PARP-1 full-length [1]) is on record?
**A.** 2.1 nM

**Q.** And the Kd (PARP-1 full-length [2])?
**A.** 0.13 nM

**Q.** And the Kd (PARP-1 full-length [3])?
**A.** 2.1 nM

**Q.** What about the Kd (PARP-1 full-length [4]) of the same binder?
**A.** 4.2 nM
